The supplement of paper PMC11246515
± gives the standard deviation of the averaged measurements.

Assay: total protein half-life in vivo (active degradation + dilution); higher = more stable protein
[1] = E. coli NCM3722 delta-hslV, growth: N-lim chemostat, doubling time 6 h
[2] = E. coli NCM3722 delta-smpB, growth: N-lim chemostat, doubling time 6 h
[3] = E. coli NCM3722 delta-clpP delta-lon delta-hslV, growth: N-lim chemostat, doubling time 6 h
[4] = E. coli NCM3722 delta-lon, growth: N-lim chemostat, doubling time 6 h
[5] = wild type E. coli NCM3722, growth: C-lim chemostat, doubling time 3 h
[6] = wild type E. coli NCM3722, growth: C-lim chemostat, doubling time 6 h
[7] = wild type E. coli NCM3722, growth: C-lim chemostat, doubling time 12 h
[8] = wild type E. coli NCM3722, growth: N-lim chemostat, doubling time 6 h
[9] = wild type E. coli NCM3722, growth: N-lim chemostat, doubling time 12 h
[10] = wild type E. coli NCM3722, growth: P-lim chemostat, doubling time 6 h
[11] = wild type E. coli NCM3722, growth: P-lim chemostat, doubling time 12 h
[12] = E. coli NCM3722 delta-clpP, growth: N-lim chemostat, doubling time 6 h

Row | Sequence | total protein half-life in vivo [1] [h] | total protein half-life in vivo [2] [h] | total protein half-life in vivo [3] [h] | total protein half-life in vivo [4] [h] | total protein half-life in vivo [5] [h] | total protein half-life in vivo [6] [h] | total protein half-life in vivo [7] [h] | total protein half-life in vivo [8] [h] | total protein half-life in vivo [9] [h] | total protein half-life in vivo [10] [h] | total protein half-life in vivo [11] [h] | total protein half-life in vivo [12] [h]
1 | MMNPVLWLQMTNMISYQGLVRTFLNKNDLKAFIAFPSSLYPDDPNWIPPLFIERNEHLSAKNPGTDHIIWQAWVAKKAGQIVGRITAQIDTLHRERYGKDTGHFGMIDAIDDPQVFAALFGAAEAWLKSQGASKISGPFSLNINQESGLLIEGFDTPPCAMMPHGKPWYAAHIEQLGYHKGIDLLAWWMQRTDLTFSPALKKLMDQVRKKVTIRCINRQRFAEEMQILREIFNSGWQHNWGFVPFTEHEFATMGDQLKYLVPDDMIYIAEIDSAPCAFIVGLPNINEAIADLNGSLFPFGWAKLLWRLKVSGVRTARVPLMGVRDEYQFSRIGPVIALLLIEALRDPFARRKIDALEMSWILETNTGMNNMLERIGAEPYKRYRLYEKQI | 2.23 | 3.38 |  |  |  |  |  |  |  |  |  | 
2 | MIIIRYLVRETLKSQLAILFILLLIFFCQKLVRILGAAVDGDIPANLVLSLLGLGVPEMAQLILPLSLFLGLLMTLGKLYTESEITVMHACGLSKAVLVKAAMILAVFTAIVAAVNVMWAGPWSSRHQDEVLAEAKANPGMAALAQGQFQQATNGSSVLFIESVDGSDFKDVFLAQIRPKGNARPSVVVADSGHLTQLRDGSQVVTLNQGTRFEGTALLRDFRITDFQDYQAIIGHQAVALDPNDTDQMDMRTLWNTDTDRARAELNWRITLVFTVFMMALMVVPLSVVNPRQGRVLSMLPAMLLYLLFFLIQTSLKSNGGKGKLDPTLWMWTVNLIYLALAIVLNLWDTVPVRRLRASFSRKGAV [P0AF98] |  | 6.02 ± 0.49 | 6.78 ± 0.092 | 6.05 ± 0.35 | 3.17 ± 0.17 | 5.94 ± 0.35 | 10.4 | 5.9587 ± 0.0048 | 12.6 ± 0.32 | 6.85 ± 0.98 | 12.6 ± 0.65 | 
3 | MKKWSRHLLAAGALALGMSAAHADDNNTLYFYNWTEYVPPGLLEQFTKETGIKVIYSTYESNETMYAKLKTYKDGAYDLVVPSTYYVDKMRKEGMIQKIDKSKLTNFSNLDPDMLNKPFDPNNDYSIPYIWGATAIGVNGDAVDPKSVTSWADLWKPEYKGSLLLTDDAREVFQMALRKLGYSGNTTDPKEIEAAYNELKKLMPNVAAFNSDNPANPYMEGEVNLGMIWNGSAFVARQAGTPIDVVWPKEGGIFWMDSLAIPANAKNKEGALKLINFLLRPDVAKQVAETIGYPTPNLAARKLLSPEVANDKTLYPDAETIKNGEWQNDVGAASSIYEEYYQKLKAGR [P0AFK9] | 6.46 ± 0.61 | 5.94 ± 0.35 |  | 6.271 ± 0.061 | 3.44 ± 0.58 | 6.44 ± 0.57 | 13.6 ± 0.72 | 6.07 ± 0.22 | 11.99 ± 0.032 | 5.59 ± 0.35 | 12.5 ± 0.19 | 5.36 ± 0.48
4 | MNAEKSPVNHNVDHEEIAKFEAVASRWWDLEGEFKPLHRINPLRLGYIAERAGGLFGKKVLDVGCGGGILAESMAREGATVTGLDMGFEPLQVAKLHALESGIQVDYVQETVEEHAAKHAGQYDVVTCMEMLEHVPDPQSVVRACAQLVKPGGDVFFSTLNRNGKSWLMAVVGAEYILRMVPKGTHDVKKFIKPAELLGWVDQTSLKERHITGLHYNPITNTFKLGPGVDVNYMLHTQNK | 3.48 ± 0.11 | 3.46 ± 0.082 | 4.74 ± 0.1 | 4.02 ± 0.45 | 2.45 ± 0.027 | 4.96 ± 0.83 | 6.694 ± 0.058 | 3.85 ± 0.49 | 5.66 ± 0.72 | 3.13 ± 0.38 | 5.66 ± 0.45 | 4.09 ± 0.23
5 | MSKTHLTEQKFSDFALHPKVVEALEKKGFHNCTPIQALALPLTLAGRDVAGQAQTGTGKTMAFLTSTFHYLLSHPAIADRKVNQPRALIMAPTRELAVQIHADAEPLAEATGLKLGLAYGGDGYDKQLKVLESGVDILIGTTGRLIDYAKQNHINLGAIQVVVLDEADRMYDLGFIKDIRWLFRRMPPANQRLNMLFSATLSYRVRELAFEQMNNAEYIEVEPEQKTGHRIKEELFYPSNEEKMRLLQTLIEEEWPDRAIIFANTKHRCEEIWGHLAADGHRVGLLTGDVAQKKRLRILDEFTRGDLDILVATDVAARGLHIPAVTHVFNYDLPDDCEDYVHRIGRTGRAGASGHSISLACEEYALNLPAIETYIGHSIPVSKYNPDALMTDLPKPLRLTRPRTGNGPRRTGAPRNRRRSG [P0A8J8] | 5.52 ± 0.76 | 4.94 ± 0.49 | 6.02 ± 0.1 | 5.16 ± 0.18 | 3.18 ± 0.11 | 5.73 ± 0.11 | 9.86 ± 0.77 | 4.71 ± 0.18 | 7.89 ± 0.44 | 5.06 ± 0.39 | 9.85 ± 0.23 | 5.9 ± 0.37
6 | MKKRKTVKKRYVIALVIVIAGLITLWRILNAPVPTYQTLIVRPGDLQQSVLATGKLDALRKVDVGAQVSGQLKTLSVAIGDKVKKDQLLGVIDPEQAENQIKEVEATLMELRAQRQQAEAELKLARVTYSRQQRLAQTKAVSQQDLDTAATEMAVKQAQIGTIDAQIKRNQASLDTAKTNLDYTRIVAPMAGEVTQITTLQGQTVIAAQQAPNILTLADMSAMLVKAQVSEADVIHLKPGQKAWFTVLGDPLTRYEGQIKDVLPTPEKVNDAIFYYARFEVPNPNGLLRLDMTAQVHIQLTDVKNVLTIPLSALGDPVGDNRYKVKLLRNGETREREVTIGARNDTDVEIVKGLEAGDEVVIGEAKPGAAQ |  | 6.19 ± 0.26 | 6.09 ± 0.067 | 6.45 ± 0.1 | 3.07 ± 0.068 | 6.04 ± 0.16 | 12.54 ± 0.11 | 6.37 ± 0.067 | 13.5 ± 1.4 | 5.83 ± 0.37 | 12 ± 0.15 | 
7 | MSIISTKYLLQDAQANGYAVPAFNIHNAETIQAILEVCSEMRSPVILAGTPGTFKHIALEEIYALCSAYSTTYNMPLALHLDHHESLDDIRRKVHAGVRSAMIDGSHFPFAENVKLVKSVVDFCHSQDCSVEAELGRLGGVEDDMSVDAESAFLTDPQEAKRFVELTGVDSLAVAIGTAHGLYSKTPKIDFQRLAEIREVVDVPLVLHGASDVPDEFVRRTIELGVTKVNVATELKIAFAGAVKAWFAENPQGNDPRYYMRVGMDAMKEVVRNKINVCGSANRISA [P0AB74] |  |  | > 8 |  | 2.35 ± 1.1 | 3.2 | 4.72 |  |  |  |  | 
8 | MMILVTGGARSGKSRHAEALIGDSSQVLYIATSQILDDEMAARIEHHRQGRPEHWRTVERWQHLDELIHADINPNEVVLLECVTTMVTNLLFDYGGDKDPDEWDYQAMEQAINAEIQSLIAACQRCPAKVVLVTNEVGMGIVPESRLARHFRDIAGRVNQQLAAAANEVWLVVSGIGVKIK [P0AE76] | 4.32 | 4.68 | 4.52 |  |  | 5.17 | 10.5 | 3.85 | 8.3 | 5.94 | 9.83 ± 1.8 | 3.9
